For this experiment, the target named is HLA-A2 on T2 cells. As to the kind of experiment: T2 HLA-stabilization assay, HLA-A2 level by flow cytometry. Particulars: remark: other sources report otherwise.

B1: GP2 peptide from HER2/neu (peptide)
peptide: IISAVVGIL
Turning to B1, the mean fluorescence intensity (mean fluorescence intensity) was determined as 682.

These data come from patent US20080260745A1.
